Earlier results as cited in patent publication US20040047891A1, “Systems devices and methods for intrabody targeted delivery and reloading of therapeutic agents” (priority 2003, published 2004).
Read-outs that look alike come from different tables or passages of the source.

Assays:
ET-A receptor = biological target: T1, ET-A receptor (Homo sapiens, UniProt P25101)
T1 sequence (P25101 21-427): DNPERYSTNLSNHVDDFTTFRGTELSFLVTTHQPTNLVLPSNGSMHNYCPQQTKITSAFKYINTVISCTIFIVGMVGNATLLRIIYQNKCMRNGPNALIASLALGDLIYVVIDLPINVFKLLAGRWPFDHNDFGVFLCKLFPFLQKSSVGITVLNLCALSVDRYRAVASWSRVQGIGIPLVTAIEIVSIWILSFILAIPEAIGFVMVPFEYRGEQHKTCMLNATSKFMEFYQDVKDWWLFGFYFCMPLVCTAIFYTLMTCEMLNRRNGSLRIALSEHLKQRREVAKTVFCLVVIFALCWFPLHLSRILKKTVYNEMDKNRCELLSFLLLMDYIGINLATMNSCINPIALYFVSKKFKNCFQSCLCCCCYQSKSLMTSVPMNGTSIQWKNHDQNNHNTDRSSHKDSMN

Row | Compound | Koff (pH 2) [sec^−1 · 10^7] | Koff (pH 3) [sec^−1 · 10^7] | Koff (pH 5) [sec^−1 · 10^7] | Koff (pH 7) [sec^−1 · 10^7] | Koff (pH 1.7) [sec^−1 · 10^7] | Koff (pH 9.2) [sec^−1 · 10^7] | Koff (pH 10.5) [sec^−1 · 10^7] | Time to dissociate from the ET-A receptor (ET-A receptor) [h]
1 | Avidin: biotin-binding protein, source chicken egg white; member of the biotin-avidin binding pair | 200 | 9 | 0.9 | 0.4 |  |  |  | 
2 | Streptavidin: avidin derivative, source fermentation, no carbohydrates |  | 19 | 8.7 | 28 | 35 | 64 | 100 | 
3 | CCCCN(CCCC)C(=O)CN1C[C@H](c2ccc3c(c2)OCO3)[C@@H](C(=O)O)[C@@H]1c1ccc(OC)cc1 [ABT-627] |  |  |  |  |  |  |  | ≤ 2
